These are literature values, as cited in US20100120660A1, “HIGHLY CONCENTRATED INSULIN SOLUTIONS AND COMPOSITIONS” (priority 2007, published 2010).

Regarding porcine insulin, the “stability of insulin in highly concentrated solution” value (acidic pH) is “not stable due to deamidation and polymerisation”. The “concentration of stable insulin solutions” value (comprising zinc, neutral pH) is listed as “up to 6 mM”.
